Read-outs that look alike come from different tables or passages of the source.
Columns and labels:
[1] = molecular target: TraO/VirB9 (pKM101-encoded T4SS) (plasmid pKM101); assay: negative stain electron microscopy
[2] = molecular target: TraF/VirB10 with C-terminal Strep-tag (TraF/VirB10 C-ST) (plasmid pKM101)
[3] = molecular target: TraF/VirB10 with C-terminal Strep-tag (TraF/VirB10 C-ST) (plasmid pKM101); assay: negative stain electron microscopy
[4] = molecular target: C-terminal fragment of TraF/VirB10 in the D1 complex (residues 1-129 removed) (plasmid pKM101); assay: negative stain electron microscopy
[5] = molecular target: TraN/VirB7 (pKM101-encoded T4SS lipoprotein) (plasmid pKM101); assay: negative stain electron microscopy

Substance: TraO/VirB9 (pKM101-encoded T4SS) (natural protein)
- stoichiometry N [1]: 14
- stoichiometry N [2]: 1

Substance: TraF/VirB10 with C-terminal Strep-tag (TraF/VirB10 C-ST) (natural protein)
- stoichiometry N [3]: 14

Substance: C-terminal fragment of TraF/VirB10 in the D1 complex (residues 1-129 removed) (domain or fragment)
- stoichiometry N [4]: 14

Substance: TraN/VirB7 (pKM101-encoded T4SS lipoprotein) (natural protein)
- stoichiometry N [5]: 14
- stoichiometry N [2]: 1

Source: PMC6710095
